Results from PMC6535915 (ASN NEURO, 2019).

Target: T1, connexin 36 (rat (endogenous in supraoptic nucleus), UniProt O70610 1-321)
T1 sequence (looked up): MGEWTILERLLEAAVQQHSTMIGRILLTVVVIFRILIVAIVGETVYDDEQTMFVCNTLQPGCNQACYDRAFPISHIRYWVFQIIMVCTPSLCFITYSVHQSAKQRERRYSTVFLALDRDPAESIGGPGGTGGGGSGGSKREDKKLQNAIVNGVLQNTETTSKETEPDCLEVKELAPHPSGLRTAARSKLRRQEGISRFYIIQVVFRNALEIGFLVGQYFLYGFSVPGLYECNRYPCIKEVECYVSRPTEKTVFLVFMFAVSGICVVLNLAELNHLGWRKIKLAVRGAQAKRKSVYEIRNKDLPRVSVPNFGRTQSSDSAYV
Assay: co-IP

fold co-precipitated OT-NP in lactating rats relative to virgin rats: 1.61 fold
B1: oxytocin-neurophysin (natural protein, rat (endogenous in supraoptic nucleus), UniProt P01179 20-125, looked up)
chain: CYIQNCPLGGKRAALDLDMRKCLPCGPGGKGRCFGPSICCADELGCFVGTAEALRCQEENYLPSPCQSGQKPCGSGGRCATAGICCSPDGCRTDPACDPESAFSER
